Assay in all cases: SEC
In assay [1] the target is Human apolipoprotein E4 S94C (human) (UniProt P02649).
For assay [2], the target named is Human apolipoprotein E4 S290C (human) (UniProt P02649).
Assay [3] has as its target Human apolipoprotein E4 W264C (human) (UniProt P02649).

From paper PMC3447985 come the findings set out here.

In the case of “Human apolipoprotein E4 S94C (from UniProt P02649 19-317) (natural protein)”, in assay [1], the stoichiometry N (commonly the number of molecules, sites or subunits per partner or assembly) amounted to 4.
For “Human apolipoprotein E4 S290C (from UniProt P02649 19-317) (natural protein)”, the stoichiometry N in assay [2] turned out to be 4.
With “Human apolipoprotein E4 W264C (from UniProt P02649 19-317) (natural protein)”, the stoichiometry N in assay [3] is 4.
